Laboratory results taken from article doi:10.1101/2020.05.01.072124.
pKd: −log10 of the molar value. Read-outs that look alike come from different tables or passages of the source.

Columns and labels:
[1] = target: Recombinant MEK1 (immobilised in SPR) (human) (UniProt Q02750); experiment: SPR
[2] = target: Recombinant MEK1 (immobilised in SPR) (human) (UniProt Q02750); experiment: SPR; remark: listed apart in the source

pKd [1]: 5.68
pKd [2]: 5.10
Substance: HIS-CCS (copper chaperone for superoxide dismutase) (from UniProt O14618 1-274) (natural protein)
